Laboratory results published in patent publication US20050132443A1.

Biological target: tobacco ethylene-responsive transcription factor ERF4 (tobacco) (UniProt Q40478)
Assay: cell-based or functional assay

Sequence of tobacco ethylene-responsive transcription factor ERF4 (tobacco) (Q40478 whole entry): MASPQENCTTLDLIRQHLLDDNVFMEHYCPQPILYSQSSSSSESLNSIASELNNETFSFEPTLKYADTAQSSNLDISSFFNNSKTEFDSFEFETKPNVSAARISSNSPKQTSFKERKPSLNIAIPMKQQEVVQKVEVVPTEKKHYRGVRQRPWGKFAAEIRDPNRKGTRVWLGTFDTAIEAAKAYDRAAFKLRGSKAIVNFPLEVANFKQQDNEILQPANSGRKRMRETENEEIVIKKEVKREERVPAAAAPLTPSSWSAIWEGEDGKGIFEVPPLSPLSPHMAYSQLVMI

With “Multiprotein Bridging Factor 1 of Oryza sativa (oMBF1)” the GUS activity (pERE-GUS reporter, transient assay in tobacco leaves) was 5.5 fold.
